Assay results published in US20140363833.

T1: fluorophore-labeled thrombin substrate (fPR-x-S extended with glycine spacers and a C-terminal cysteine) on nanoworms
T1 sequence: GGFPRSGGGC

T2: D-isomer of the MMP9 substrate PLGVRGK on nanoworms
T2 sequence: PLGVRGK

T3: D-stereoisomer of the thrombin substrate PLGLRSW on nanoworms
T3 sequence: PLGLRSW

T4: fluorescein-labeled thrombin-cleavable substrate PLGLRSW on nanoworms
T4 sequence: PLGLRSW

T5: fluorophore-labeled thrombin substrate (fPR-x-S extended with glycine spacers and a C-terminal cysteine) on nanoworms (not fully specified)
T5 chain: GGFPRSGGGC


Experiments:
[1] = tested on: T1, fluorophore-labeled thrombin substrate (fPR-x-S extended with glycine spacers and a C-terminal cysteine) on nanoworms
[2] = tested on: T2, D-isomer of the MMP9 substrate PLGVRGK on nanoworms
[3] = tested on: T3, D-stereoisomer of the thrombin substrate PLGLRSW on nanoworms
[4] = tested on: T4, fluorescein-labeled thrombin-cleavable substrate PLGLRSW on nanoworms
[5] = molecular target: T5, fluorophore-labeled thrombin substrate …

Molecule | sample fluorescence (fluorogenic NW protease assay) [1] | further results
FIXa (Haematologic Technologies) | negligible proteolysis was observed from the panel of non-cognate proteases | 
FXIa (Haematologic Technologies) | negligible proteolysis was observed from the panel of non-cognate proteases | 
FXa (Haematologic Technologies) | negligible proteolysis was observed from the panel of non-cognate proteases | 
activated protein C (Haematologic Technologies) | negligible proteolysis was observed from the panel of non-cognate proteases | 
recombinant MMP9 (R&D Systems) |  | sample fluorescence (fluorogenic NW protease assay) [2]: no activity when the broad-spectrum MMP inhibitor Marimastat or D-isomer substrates were used
recombinant thrombin (Haematologic Technologies) |  | sample fluorescence (fluorogenic NW protease assay) [3]: No increase in fluorescence was observed in the presence of Argatroban, a direct thrombin inhibitor, or when the substrate was synthesized with protease-resistant D-stereoisomers; sample fluorescence (fluorogenic NW protease assay) [4]: observed a rapid increase in sample fluorescence as cleaved peptide fragments released into solution fluoresced freely
FVIIa (Haematologic Technologies) (protein) ANAFLEELRPGSLERECKEEQCSFEEAREIFKDAERTKLFWISYSDGDQCASSPCQNGGSCKDQLQSYICFCLPAFEGRNCETHKDDQLICVNENGGCEQYCSDHTGTKRSCRCHEGYSLLADGVSCTPTVEYPCGKIPILEKRNASKPQGRIVGGKVCPKGECPWQVLLLVNGAQLCGGTLINTIWVVSAAHCFDKIKNWRNLIAVLGEHDLSEHDGDEQSRRVAQVIIPSTYVPGTTNHDIALLRLHQPVVLTDHVVPLCLPERTFSERTLAFVRFSLVSGWGQLLDRGATALELMVLNVPRLMTQDCLQQSRKVGDSPNITEYMFCAGYSDGSKDSCKGDSGGPHATHYRGTWYLTGIVSWGQGCATVGHFGVYTRVSQYIEWLQKLMRSEPRPGVLLRAPFP |  | sample fluorescence (fluorogenic NW protease assay) [5]: negligible proteolysis was observed from the panel of non-cognate proteases
